Measured values: the RNAGym collection of RNA variant scans (doi:10.7554/elife.80360)

B1: Hammerhead Ribozyme (parent)
chain: ACCGGAUGUGCUUUCCGGUCUGAUGAGUCCGUGAGGACGAAACAG
B2: CPEB3 Ribozyme (parent)
chain: GGGGGCCACAGCAGAAGCGUUCACGUCGCGGCCCCUGUCAGAUUCUGGUGAAUCUGCGAAUUCUGCUGU

Variants of: B1
Assay: self-cleavage, relative activity (ratio to wild type); higher = more cleavage; co-transcriptional

Variant | self-cleavage
A1G G10A | 1.92
A1G G10U | 1.99
A1G G10C | 1.61
A1C C30G | 0.34
A1C C30U | 0.364
A1C C30A | 0.4
A1G G31C | 1.64
A1G G31U | 1.88
A1G G31A | 1.79
A1G G18U | 0.894
A1G G18C | 0.58
A1G G18A | 0.906
A1U A41C | 0.378
A1U A41U | 0.377
A1U A41G | 0.414
A1C A42G | 0.367
A1C A42U | 0.322
A1C A42C | 0.336
A1C G36A | 0.394
A1C G36U | 0.401
A1C G36C | 0.365
A1G C43G | 0.395
A1G C43U | 0.597
A1G C43A | 0.444
A1C C16A | 0.453
A1C C16G | 0.351

Variant | self-cleavage
A1C C16U | 0.347
A1G G22U | 0.408
A1G G22A | 0.384
A1G G22C | 0.376
A1G G27U | 0.585
A1G G27C | 0.879
A1G G27A | 1.07
A1C G39C | 0.344
A1C G39A | 0.438
A1C G39U | 0.341
A1U A42G | 0.351
A1U A42C | 0.395
A1U A42U | 0.279
A1G A34C | 1.1
A1G A34G | 1.5
A1G A34U | 1.47
A1C | 0.466
A1G | 1.79
A1U | 0.853
A1G C11G | 2.12
A1G C11A | 2.06
A1G C11U | 1.33
A1U A40C | 0.387
A1U A40U | 0.349
A1U A40G | 0.383
A1C C38G | 0.39

Variant | self-cleavage
A1C C38U | 0.495
A1C C38A | 0.408
A1G G45U | 1.13
A1G G45C | 1.01
A1G G45A | 1.11
A1C U19A | 0.344
A1C U19G | 1.12
A1C U19C | 0.365
A1G U12G | 1.91
A1G U12C | 1.71
A1G U12A | 1.63
A1G A40G | 0.388
A1G A40C | 0.691
A1G A40U | 0.458
A1G G5U | 0.805
A1G G5C | 0.628
A1G G5A | 1.04
A1G G17C | 0.585
A1G G17U | 1.02
A1G G17A | 0.896
A1C A34G | 0.385
A1C A34U | 0.384
A1C A34C | 0.477
A1G C38U | 1.49
A1G C38A | 0.973
A1G C38G | 0.865

Variant | self-cleavage
A1G U24G | 1.68
A1G U24C | 1.6
A1G U24A | 1.78
A1G U9C | 1.8
A1G U9A | 1.83
A1G U9G | 1.58
A1C C20U | 0.376
A1C C20G | 0.354
A1C C20A | 0.349
A1G G8A | 1.57
A1G G8C | 1.47
A1G G8U | 1.65
A1G U21A | 0.968
A1G U21G | 0.812
A1G U21C | 0.949
A1G G35A | 1.23
A1G G35C | 1.04
A1G G35U | 0.947
A1C C15U | 0.408
A1C C15A | 0.497
A1C C15G | 0.43
A1G A44U | 0.968
A1G A44G | 2.11
A1G A44C | 0.858
A1U A37G | 0.734
A1U A37C | 0.556

Variant | self-cleavage
A1U A37U | 0.464
A1G G4A | 0.521
A1G G4U | 0.693
A1G G4C | 0.32
A1C A26U | 0.352
A1C A26G | 0.302
A1C A26C | 0.338
A1U A26U | 0.383
A1U A26G | 0.34
A1U A26C | 0.402
A1C G25C | 0.313
A1C G25A | 0.255
A1C G25U | 0.377
A1C C43G | 0.285
A1C C43A | 0.295
A1C C43U | 0.5
A1C U32G | 0.302
A1C U32A | 0.363
A1C U32C | 0.514
A1G G33C | 1.67
A1G G33A | 1.53
A1G G33U | 1.7
A1U C11A | 1.01
A1U C11G | 0.646
A1G U19G | 0.61
A1G U19C | 2.02

Variant | self-cleavage
A1G U19A | 0.511
A1G C20A | 0.54
A1G C20G | 0.358
A1G C20U | 0.971
A1G G36A | 1.21
A1G G36U | 1.02
A1G G36C | 0.654
A1U A44C | 0.574
A1U A44U | 0.425
A1U A44G | 0.971
A1C G10C | 0.397
A1C G10U | 0.339
A1C G10A | 0.38
A1G C16A | 1.15
A1G C16G | 0.778
A1G C16U | 1.9
A1G A6U | 1.08
A1G A6C | 0.838
A1G A6G | 1.5
A1C A23C | 0.287
A1C A23U | 0.362
A1C A23G | 0.326
A1G U32C | 1.48
A1G U32A | 1.68
A1G U32G | 1.45
A1C G45U | 0.437

Variant | self-cleavage
A1C G45C | 0.441
A1C G45A | 0.578
A1C G8U | 0.465
A1C G8A | 0.409
A1C G8C | 0.432
A1C U13G | 0.556
A1C U13A | 0.557
A1C U13C | 0.513
A1C G22A | 0.396
A1C G22C | 0.352
A1C G22U | 0.466
A1G C30G | 1.26
A1G C30U | 1.84
A1G C30A | 1.3
A1C U14C | 0.331
A1C U14A | 0.348
A1C U14G | 0.426
A1C C2A | 1.75
A1C C2U | 2.17
A1C C2G | 0.524
A1C C29A | 0.31
A1C C29G | 0.341
A1C C29U | 0.402
A1C U28G | 0.302
A1C U28C | 0.405
A1C U28A | 0.389

Variant | self-cleavage
A1G C3G | 0.586
A1G C3U | 1.34
A1G C3A | 0.699
A1C G18C | 0.399
A1C G18U | 0.353
A1C G18A | 0.434
A1G C29A | 0.835
A1G C29G | 1.02
A1G C29U | 1.52
A1C A44G | 0.594
A1C A44U | 0.377
A1C A44C | 0.376
A1C G5A | 0.483
A1C G5C | 0.286
A1C G5U | 0.444
A1G C15U | 1.68
A1G C15G | 0.996
A1G C15A | 1.06
A1G G25C | 0.319
A1G G25U | 0.353
A1G G25A | 0.43
A1G U14C | 1.19
A1G U14G | 1.85
A1G U14A | 1.46
A1G A26U | 0.971
A1G A26G | 0.397

Variant | self-cleavage
A1G A26C | 0.571
A1G A42U | 0.425
A1G A42G | 0.344
A1G A42C | 0.361
A1G G39C | 0.394
A1G G39A | 0.384
A1G G39U | 0.428
A1G U28G | 1.33
A1G U28C | 1.79
A1G U28A | 1.26
A1U A34G | 0.596
A1U A34C | 0.492
A1U A34U | 0.452
A1U C2U | 0.598
A1U C2A | 0.672
A1U C2G | 1.92
A1C G4C | 0.472
A1C G4U | 0.353
A1C G4A | 0.406
A1C G35U | 0.435
A1C G35C | 0.406
A1C G35A | 0.404
A1G A41C | 0.461
A1G A41U | 0.42
A1G A41G | 0.436
A1C C3A | 0.426

Variant | self-cleavage
A1C C3G | 0.549
A1C C3U | 0.345
A1G A37G | 1.23
A1G A37C | 1.64
A1G A37U | 1.02
A1C C11U | 0.411
A1C C11A | 0.36
A1C C11G | 0.395
A1C A6U | 0.381
A1C A6C | 0.393
A1C A6G | 0.417
A1G C2U | 2.07
A1G C2G | 0.735
A1G C2A | 0.881
A1C U21A | 0.343
A1C U21C | 0.293
A1C U21G | 0.337
A1G A23G | 0.413
A1G A23C | 0.96
A1G A23U | 0.424
A1U A23G | 0.383
A1U A23U | 0.306
A1U A23C | 0.385
A1C G17U | 0.346
A1C G17C | 0.391
A1C G17A | 0.391

Variant | self-cleavage
A1G U7C | 1.39
A1G U7G | 1.4
A1G U7A | 1.31
A1C U24G | 0.368
A1C U24C | 0.34
A1C U24A | 0.471
A1C U12C | 0.373
A1C U12G | 0.325
A1C U12A | 0.471
A1C A40U | 0.484
A1C A40C | 0.446
A1C A40G | 0.298
A1C A41G | 0.328
A1C A41U | 0.341
A1C A41C | 0.372
A1C A37U | 0.34
A1C A37C | 0.404
A1C A37G | 0.348
A1C G31A | 0.454
A1C G31C | 0.503
A1C G31U | 0.561
A1C G33A | 0.57
A1C G33U | 0.561
A1C G33C | 0.321
A1G U13G | 1.97
A1G U13A | 1.96

Variant | self-cleavage
A1G U13C | 1.87
A1C U7C | 0.38
A1C U7G | 0.377
A1C U7A | 0.29
A1C G27C | 0.357
A1C G27U | 0.328
A1C G27A | 0.332
A1U A6U | 0.46
A1U A6G | 0.459
A1U A6C | 0.363
A1C U9C | 0.394
A1C U9A | 0.399
A1C U9G | 0.346
A1U C3G | 0.418
A1U C3U | 0.433
A1U C3A | 0.767

Variants of: B2
Assay: as above

Variant | self-cleavage
G68C U69G | 1.11
G68C U69A | 1.06
U69A | 1.02
U69C | 1.06
U69G | 1.06
C66U U67G | 1
C66U U67C | 0.956
G68U U69C | 1.1
G68U U69G | 1.02
G68U U69A | 1.01
U67C U69G | 1.11
U67C U69A | 1.07
C66G U69G | 0.923
C66G U69A | 1.02
C66G U69C | 1.01
C66U | 0.99

Variant | self-cleavage
U67A U69C | 1.07
U67A U69G | 1.04
U67A U69A | 0.996
C66U U69C | 1.06
C66U U69A | 1.03
G68A U69G | 1.06
U67G U69C | 1.1
U67G U69A | 1.1
U67A G68A | 1.07
U67A G68U | 1.01
U67A G68C | 0.955
U67C G68U | 1.06
U67C G68A | 0.983
C66U G68C | 0.991
U67G G68C | 1.07
U67G G68U | 1.1
